Test results: US20220249679A1 (Mitsubishi Tanabe Pharma Corporation, priority 2018, published 2022)
Where a chain is given by its changes, count along the chain named. One block for each molecule: values may come before it.

Experiments:
[1] = Size exclusion chromatography (SEC), percent monomer; assay type: physicochemical; conditions: Table 19, after protein A purification
Experimental: The antibodies were purified utilizing pH dependent, protein A purification (HiTrap MabSelect SuRe 5 mL). After purification, the antibodies were buffer exchanged into 1× DPBS using zeba spin columns. The recovery and relative stability as determined by size exclusion chromatography (SEC) analysis varied between the humanized antibodies (SEC profiles not shown). The nomenclature sometimes takes the form of hF6 xky-rep where h stands for humanized, F6 stands for F12P16F6-derived, x stands for the first letter of the first procedure used to generate the humanized heavy chain sequence (e.g., x can be a=abb, s=sdr, f=fra, or c=cdr), k stands for kappa light chain, and y stands for the first letter of the first procedure used to generate the humanized light chain sequence (a=abb, s=sdr, f=fra, c=cdr).

[2] = biological target: T1, Human CD138 His (Homo sapiens, UniProt P18827); assay: SPR kinetic binding, human CD138; conditions: bivalent analyte fit
T1 construct: His
T1 sequence (P18827 23-310): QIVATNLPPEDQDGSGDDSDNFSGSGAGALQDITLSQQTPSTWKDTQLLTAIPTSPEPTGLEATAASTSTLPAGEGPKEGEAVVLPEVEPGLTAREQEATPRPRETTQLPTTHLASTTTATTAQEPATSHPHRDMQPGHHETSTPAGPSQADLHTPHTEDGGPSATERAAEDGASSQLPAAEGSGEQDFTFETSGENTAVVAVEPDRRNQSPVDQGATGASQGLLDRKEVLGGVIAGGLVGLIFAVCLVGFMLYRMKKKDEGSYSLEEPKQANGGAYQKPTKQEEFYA
Experimental: Murine IgGs were purified from the hybridoma supernatants and the IgGs were subject to SPR (surface plasmon resonance) for kinetic binding measurements. Human or mouse CD138 His was immobilized on a GLM chip at […] on a BioRad Proteon. […] KDs were measured using bivalent analyte fit.

B1: F6 ckf-rep: humanized anti-CD138 antibody; VH SEQ ID NO:90, VL SEQ ID NO:43 (antibody, V domains shown)
VH: QVQLVQSGAEVVKPGASVKLSCKASGYTFTSYYLYWVKKAPGQGLDWIGEIYPRSGGTNINEKFLSRVTLTADTSTSTAYLELSSLTSEDTAVYYCTRSLLYWGQGTTLTVSS
VL: DVVMTQSPLSLSVTLGQPASISCKSSQSLLASDGKTYLNWLQQRPGQSPRRLIYLVSKLDSGVPNRFSGSGSGTDFTLQISRVEAEDVGLYYCWQGAHFPFTFGSGTKLEIKR
modifications: Humanized Heavy chain variable region; Humanized Light chain variable region
- SEC % Monomer [1]: 95.3%

B2: F6 f2ka-rep: humanized anti-CD138 antibody; VH SEQ ID NO:92, VL SEQ ID NO:42; two lots (antibody, V domains shown)
VH: B1 VH with V5Q, L70I, T74E, A79V, L81M, E82Q, T91S
VL: B1 VL with S7T, L15P, Q42L, R50K, W94M, S105G, L109V
modifications: Humanized Heavy chain variable region; Humanized Light chain variable region
notes: humanized anti-CD138 antibody; two lots
- SEC % Monomer ([1]; listed as F6 f2ka-rep (Lot 1)): 79.1%
- SEC % Monomer ([1]; listed as F6 f2ka-rep (Lot 2)): 95%

B3: F6 aka-rep: humanized anti-CD138 antibody; VH SEQ ID NO:89, VL SEQ ID NO:42 (antibody, V domains shown)
VH: B1 VH with I60Y, N61A, L65Q, S66G
VL: B1 VL with S7T, L15P, Q42L, R50K, W94M, S105G, L109V
modifications: Humanized Heavy chain variable region; Humanized Light chain variable region
- SEC % Monomer [1]: 75.2%

B4: F6 f2ks-rep: humanized anti-CD138 antibody; VH SEQ ID NO:92, VL SEQ ID NO:41 (antibody, V domains shown)
VH: B1 VH with V5Q, L70I, T74E, A79V, L81M, E82Q, T91S
VL: B1 VL with S7T, L15P, Q42L, R50K
modifications: Humanized Heavy chain variable region; Humanized Light chain variable region
- SEC % Monomer [1]: 77.6%

B5: F6 aks-rep: humanized anti-CD138 antibody; VH SEQ ID NO:89, VL SEQ ID NO:41 (antibody, V domains shown)
VH: B1 VH with I60Y, N61A, L65Q, S66G
VL: B1 VL with S7T, L15P, Q42L, R50K
modifications: Humanized Heavy chain variable region; Humanized Light chain variable region
- SEC % Monomer [1]: 95.2%

B6: F6 akf-rep: humanized anti-CD138 antibody; VH SEQ ID NO:89, VL SEQ ID NO:43 (antibody, V domains shown)
VH: B1 VH with I60Y, N61A, L65Q, S66G
VL: B1 VL
modifications: Humanized Heavy chain variable region; Humanized Light chain variable region
- SEC % Monomer [1]: 95.4%

B7: F6 f1ks-rep: humanized anti-CD138 antibody; VH SEQ ID NO:91, VL SEQ ID NO:41 (antibody, V domains shown)
VH: B1 VH with V5Q, L81M, E82D
VL: B1 VL with S7T, L15P, Q42L, R50K
modifications: Humanized Heavy chain variable region; Humanized Light chain variable region
- SEC % Monomer [1]: 95.6%

B8: F6 cka-rep: humanized anti-CD138 antibody; VH SEQ ID NO:90, VL SEQ ID NO:42 (antibody, V domains shown)
VH: B1 VH
VL: B1 VL with S7T, L15P, Q42L, R50K, W94M, S105G, L109V
modifications: Humanized Heavy chain variable region; Humanized Light chain variable region
- SEC % Monomer [1]: 88.8%

B9: F6 f1kf-rep: humanized anti-CD138 antibody; VH SEQ ID NO:91, VL SEQ ID NO:43 (antibody, V domains shown)
VH: B1 VH with V5Q, L81M, E82D
VL: B1 VL
modifications: Humanized Heavy chain variable region; Humanized Light chain variable region
- SEC % Monomer [1]: 94.3%

B10: F6 f2kf-rep: humanized anti-CD138 antibody; VH SEQ ID NO:92, VL SEQ ID NO:43 (antibody, V domains shown)
VH: B1 VH with V5Q, L70I, T74E, A79V, L81M, E82Q, T91S
VL: B1 VL
modifications: Humanized Heavy chain variable region; Humanized Light chain variable region
- SEC % Monomer [1]: 95.1%

B11: F6 f1ka-rep: humanized anti-CD138 antibody; VH SEQ ID NO:91, VL SEQ ID NO:42 (antibody, V domains shown)
VH: B1 VH with V5Q, L81M, E82D
VL: B1 VL with S7T, L15P, Q42L, R50K, W94M, S105G, L109V
modifications: Humanized Heavy chain variable region; Humanized Light chain variable region
- SEC % Monomer [1]: 92.9%

- hCD138 ka [2]: 107000 M⁻¹ s⁻¹
- hCD138 kd [2]: 0.00104 s⁻¹
B12: F13P14D3: murine anti-CD138 hybridoma antibody; VH SEQ ID NO:86, VL SEQ ID NO:38 (antibody, listed as Mus musculus, V domains shown)
VH: EVQLVESGGGLVQPKGSLKLSCATSGFTFNTYAMNWVRQAPGKGLEWVARIRSKSNNYATYYVDSVKDRFTISRDDSQSTVHLQMNNLKTEDTAIYYCVTDYGHVYFDVWGAGTTVTVSS
VL: NIVMTQSPKSMSMSVGQRVTLSCKASENVGSYVSWYQQKPEQSPKLLIYGASNRNTGVPDRFTGSGSATDFTLTISSVQAEDLADYHCGQSSRYPLTFGGGTKLELKR

- hCD138 ka [2]: 128000 M⁻¹ s⁻¹
- hCD138 kd [2]: 0.0117 s⁻¹
B13: F11AP11E5: murine anti-CD138 hybridoma antibody; VH SEQ ID NO:87, VL SEQ ID NO:39 (antibody, listed as Mus musculus, V domains shown)
VH: QVQLQQSGAELVKPGASVKLSCKASGYTFTNYYMYWVKQRPGQGLEWIGEINPGNGGTNFNEKFKNKATLTVDKSSSTAYMQLSSLTSEDSAVYYCTTRFAYWGQGTLVIVSA
VL: DVVMTQTPLSLSVTIGQPASISCKSGQSLLYSNGKTYLTWLQQRPGQAPKLLMYQVSKLDPGIPDRFSGSGSETDFTLKISRVEAEDLGVYYCLQNTYYPHTFGAGTKLELKR

- hCD138 ka [2]: 3.81e+06 M⁻¹ s⁻¹
- hCD138 kd [2]: 0.033 s⁻¹
B14: F12P7G11: murine anti-CD138 hybridoma antibody; VH SEQ ID NO:85, VL SEQ ID NO:37 (antibody, listed as Mus musculus, V domains shown)
VH: QVQLQQSGAELARPGASVKLSCKASGYTFSSHWMQWVKQRPGQGLEWIGAIYPGDGDTRFTQKFKGKATLTADKSSNTAYMQLSSLASEDSAVYYCARGIYYDRSRAMDYWGQGTSVTVSS
VL: QIVLSQSPAILSASPGEKVTMTCRASSSVNYMHWYQQKPGSSPKHWIYATSYLASGVPARFSGSGSGTSYSLTISRVEAEDAATYYCQQWSSDPLTFGAGTKLELKR
